{"source": "paper PMC2877398", "about": "(Structure (London, England : 1993), 2010)", "binders": {"B1": {"name": "S. cerevisiae RNA triphosphatase Cet1 (241–549) (domain or fragment, UniProt O13297 241-549, looked up)", "chain": "YRNVPIWAQKWKPTIKALQSINVKDLKIDPSFLNIIPDDDLTKSVQDWVYATIYSIAPELRSFIELEMKFGVIIDAKGPDRVNPPVSSQCVFTELDAHLTPNIDASLFKELSKYIRGISEVTENTGKFSIIESQTRDSVYRVGLSTQRPRFLRMSTDIKTGRVGQFIEKRHVAQLLLYSPKDSYDVKISLNLELPVPDNDPPEKYKSQSPISERTKDRVSYIHNDSCTRIDITKVENHNQNSKSRQSETTHEVELEINTPALLNAFDNITNDSKEYASLIRTFLNNGTIIRRKLSSLSYEIFEGSKKVM"}}, "key": {"[1]": {"target": "T1, S. cerevisiae RNA guanylyltransferase Ceg1 (1–459), full length (S. cerevisiae, UniProt Q01159 1-459)", "T1 sequence (looked up)": "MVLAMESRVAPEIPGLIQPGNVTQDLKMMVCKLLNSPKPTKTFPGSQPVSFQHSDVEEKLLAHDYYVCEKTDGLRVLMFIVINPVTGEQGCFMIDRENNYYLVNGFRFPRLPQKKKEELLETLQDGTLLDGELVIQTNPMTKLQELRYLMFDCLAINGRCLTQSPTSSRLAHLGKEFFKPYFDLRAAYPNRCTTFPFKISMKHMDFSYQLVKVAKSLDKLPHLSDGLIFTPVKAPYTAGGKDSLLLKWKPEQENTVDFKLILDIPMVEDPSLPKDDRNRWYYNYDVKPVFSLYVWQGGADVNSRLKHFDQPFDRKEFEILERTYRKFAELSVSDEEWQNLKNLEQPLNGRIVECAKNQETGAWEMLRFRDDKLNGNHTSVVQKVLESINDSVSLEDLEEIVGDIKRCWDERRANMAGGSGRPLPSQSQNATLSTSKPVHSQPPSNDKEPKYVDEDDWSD", "assay": "SEC"}, "[2]": {"target": "the molecule itself", "assay": "crystal structure"}}, "note": "Where “and” joins values, the source holds several entries; their conditions need not be identical. Equal entries are not always repeated."}
{"binder": "B1", "values": [{"measurement": "stoichiometry N", "setting": "[1]", "value": "2 Cet1 protomers per Ceg1 (2:1) and 1 Cet1 protomers per Ceg1 (2:2)"}, {"measurement": "stoichiometry N", "setting": "[2]", "value": 2, "unit": "protomers"}]}
